From publication doi:10.1101/2025.05.02.651952 (bioRxiv, 2025)

Tests used:
[1] = biological target: Ssa1-WT (yeast, UniProt P10591 1-642); assay: ELISA
[2] = biological target: firefly luciferase (denatured) (firefly, UniProt P08659 1-550 = luciferase); assay: ELISA
Sequence of firefly luciferase (denatured) (P08659 whole entry): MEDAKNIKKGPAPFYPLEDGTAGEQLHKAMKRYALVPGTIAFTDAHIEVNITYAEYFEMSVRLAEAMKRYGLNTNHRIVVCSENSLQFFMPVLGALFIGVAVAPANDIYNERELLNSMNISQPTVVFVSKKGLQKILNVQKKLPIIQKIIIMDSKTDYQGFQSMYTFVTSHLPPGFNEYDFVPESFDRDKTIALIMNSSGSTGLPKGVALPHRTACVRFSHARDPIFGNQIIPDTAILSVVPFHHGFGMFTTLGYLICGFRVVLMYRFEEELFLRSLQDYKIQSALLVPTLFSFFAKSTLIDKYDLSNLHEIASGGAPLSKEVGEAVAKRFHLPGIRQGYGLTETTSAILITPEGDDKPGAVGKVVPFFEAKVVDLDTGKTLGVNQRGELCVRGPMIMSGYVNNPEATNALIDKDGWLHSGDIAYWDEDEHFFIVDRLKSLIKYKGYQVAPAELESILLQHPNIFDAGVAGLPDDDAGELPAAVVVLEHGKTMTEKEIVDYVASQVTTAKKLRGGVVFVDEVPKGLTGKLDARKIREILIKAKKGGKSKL

Sequence of Ssa1-WT (P10591 whole entry): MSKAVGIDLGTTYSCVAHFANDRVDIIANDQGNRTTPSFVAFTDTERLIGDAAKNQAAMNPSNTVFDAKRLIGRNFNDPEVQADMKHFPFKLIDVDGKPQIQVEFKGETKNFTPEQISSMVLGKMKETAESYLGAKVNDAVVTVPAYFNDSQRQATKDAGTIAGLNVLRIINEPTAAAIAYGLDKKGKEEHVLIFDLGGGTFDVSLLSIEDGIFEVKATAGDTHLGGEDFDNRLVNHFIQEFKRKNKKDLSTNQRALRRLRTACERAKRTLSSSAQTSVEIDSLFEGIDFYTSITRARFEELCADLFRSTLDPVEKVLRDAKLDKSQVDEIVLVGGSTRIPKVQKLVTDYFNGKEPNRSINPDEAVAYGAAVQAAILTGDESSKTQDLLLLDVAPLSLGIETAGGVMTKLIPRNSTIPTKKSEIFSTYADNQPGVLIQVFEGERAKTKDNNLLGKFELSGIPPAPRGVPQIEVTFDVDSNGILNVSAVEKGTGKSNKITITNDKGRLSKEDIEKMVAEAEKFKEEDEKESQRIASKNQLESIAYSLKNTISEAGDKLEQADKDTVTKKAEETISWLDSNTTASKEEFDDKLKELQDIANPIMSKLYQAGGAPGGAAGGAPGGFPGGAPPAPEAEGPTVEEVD

Binder	binding result [1]	binding result [2]
Sis1-WT (natural protein) MVKETKLYDLLGVSPSANEQELKKGYRKAALKYHPDKPTGDTEKFKEISEAFEILNDPQKREIYDQYGLEAARSGGPSFGPGGPGGAGGAGGFPGGAGGFSGGHAFSNEDAFNIFSQFFGGSSPFGGADDSGFSFSSYPSGGGAGMGGMPGGMGGMHGGMGGMPGGFRSASSSPTYPEEETVQVNLPVSLEDLFVGKKKSFKIGRKGPHGASEKTQIDIQLKPGWKAGTKITYKNQGDYNPQTGRRKTLQFVIQEKSHPNFKRDGDDLIYTLPLSFKESLLGFSKTIQTIDGRTLPLSRVQPVQPSQTSTYPGQGMPTPKNPSQRGNLIVKYKVDYPISLNDAQKRAIDENF	binds	binds
Sis1-[change] (natural protein) MVKETKLYDLLGVSPSANEQELKKGYRKAALKYHPDKPTGDTEKFKEISEAFAILNDPQKREIYDQYGLEAARSGGPSFGPGGPGGAGGAGGFPGGAGGFSGGHAFSNEDAFNIFSQFFGGSSPFGGADDSGFSFSSYPSGGGAGMGGMPGGMGGMHGGMGGMPGGFRSASSSPTYPEEETVQVNLPVSLEDLFVGKKKSFKIGRKGPHGASEKTQIDIQLKPGWKAGTKITYKNQGDYNPQTGRRKTLQFVIQEKSHPNFKRDGDDLIYTLPLSFKESLLGFSKTIQTIDGRTLPLSRVQPVQPSQTSTYPGQGMPTPKNPSQRGNLIVKYKVDYPISLNDAQKRAIDENF	binds	binds
Sis1-[change] (natural protein) MVKETKLYDLLGVSPSANEQELKKGYRKAALKYHPDKPTGDTEKFKEIVEAFEILNDPQKREIYDQYGLEAARSGGPSFGPGGPGGAGGAGGFPGGAGGFSGGHAFSNEDAFNIFSQFFGGSSPFGGADDSGFSFSSYPSGGGAGMGGMPGGMGGMHGGMGGMPGGFRSASSSPTYPEEETVQVNLPVSLEDLFVGKKKSFKIGRKGPHGASEKTQIDIQLKPGWKAGTKITYKNQGDYNPQTGRRKTLQFVIQEKSHPNFKRDGDDLIYTLPLSFKESLLGFSKTIQTIDGRTLPLSRVQPVQPSQTSTYPGQGMPTPKNPSQRGNLIVKYKVDYPISLNDAQKRAIDENF	binds	binds
Sis1-[change] (natural protein) MVKETKLYDLLGVSPSANEQELKKGYRKAALKYHPDKPTGDTEKFKEISEAFKILNDPQKREIYDQYGLEAARSGGPSFGPGGPGGAGGAGGFPGGAGGFSGGHAFSNEDAFNIFSQFFGGSSPFGGADDSGFSFSSYPSGGGAGMGGMPGGMGGMHGGMGGMPGGFRSASSSPTYPEEETVQVNLPVSLEDLFVGKKKSFKIGRKGPHGASEKTQIDIQLKPGWKAGTKITYKNQGDYNPQTGRRKTLQFVIQEKSHPNFKRDGDDLIYTLPLSFKESLLGFSKTIQTIDGRTLPLSRVQPVQPSQTSTYPGQGMPTPKNPSQRGNLIVKYKVDYPISLNDAQKRAIDENF	binds	binds
Sis1-[change] (natural protein) MVKETKLYDLLGVSPSANEQELKKGYRKAALKYHPDKPTGDTEKFKEISEAFEILLDPQKREIYDQYGLEAARSGGPSFGPGGPGGAGGAGGFPGGAGGFSGGHAFSNEDAFNIFSQFFGGSSPFGGADDSGFSFSSYPSGGGAGMGGMPGGMGGMHGGMGGMPGGFRSASSSPTYPEEETVQVNLPVSLEDLFVGKKKSFKIGRKGPHGASEKTQIDIQLKPGWKAGTKITYKNQGDYNPQTGRRKTLQFVIQEKSHPNFKRDGDDLIYTLPLSFKESLLGFSKTIQTIDGRTLPLSRVQPVQPSQTSTYPGQGMPTPKNPSQRGNLIVKYKVDYPISLNDAQKRAIDENF	binds	binds
